# From the RNAGym collection of RNA variant scans (doi:10.1101/gr.219683.116)
# B1: mRNA-splicing (parent)
# chain: AGUUGCUGCUGGGAGCUCCAGCACAGUGAAAUGGACAGAAGGGCAGAGCAA
# Variants of: B1
# Assay: exon inclusion enrichment index; higher = more inclusion; WT1 exon 5 minigene, HEK293
row,Variant,exon inclusion enrichment index
1,AGUUACCACCGGGAGCUCCAGCACAGUGCAAUGGACAGAAGGGCAGAGCAA,2.01
2,AGUUACCACCGGGAGCUCCCUCACAGUGAAAUGGACAGAAGGGCAGAGCAA,1
3,AGUUACCACCGGGAGCUCCCACACAGUGAAAUGGACAGAAGGGCAGAGCAA,0.984
4,AGUUACCACCGGGAGCUCCCCCACAGUGAAAUGGACAGAAGGGCAGAGCAA,0.722
5,AGUUACCGUCGGGAGCUCCAGCACAGUGAAAUGGACAGAAGGGCAGAGCAA,2.63
6,AGUUACCAAUGGGAGCUCCAGCACAGUGAAAUGGACAGAAGGGCAGAGCAA,0.923
7,AGUUACCAUUGGGAGCUCCAGCACAGUGAAAUGGACAGAAGGGCAGAGCAA,0.959
8,AGUUACCAGUGGGAGCUCCAGCACAGUGAAAUGGACAGAAGGGCAGAGCAA,0.872
9,AGUUACCACCGGGAGCUCCCGCACAGUGAAAUGGACAGAAGGGCAGAGCAA,1.81
10,AGUUACCACCGGGAGCUCCUGCACAGUGAAAUGGACAGAAGGGCAGAGCAA,2.38
11,AGUUACCACCGGGAGCUCCGGCACAGUGAAAUGGACAGAAGGGCAGAGCAA,2.79
12,AGUUACCACCGGGAGCUCCAGCACCAUGAAAUGGACAGAAGGGCAGAGCAA,4.29
13,AGUUACCACCGGGAGCUCCAGCACCCUGAAAUGGACAGAAGGGCAGAGCAA,2.75
14,AGUUACCACCGGGAGCUCCAGCACCUUGAAAUGGACAGAAGGGCAGAGCAA,2.86
15,AGUUACCACCGGGAGCUCCAGCACCGUGAAAUGGACAGAAGGGCAGAGCAA,4.03
16,AGUUACCACCGGGAGCUCCAGCACGGUGAAAUGGACAGAAGGGCAGAGCAA,3.43
17,AGUUACCACCGGGAGCUCCAGCACUGUGAAAUGGACAGAAGGGCAGAGCAA,2.57
18,AGUUAUCUAUGGGAGCUCCAGCACAGUGAAAUGGACAGAAGGGCAGAGCAA,0.249
19,AGUUACAUAUGGGAGCUCCAGCACAGUGAAAUGGACAGAAGGGCAGAGCAA,0.262
20,AGUUACCACAUGGAGCUCCAGCACAGUGAAAUGGACAGAAGGGCAGAGCAA,1.37
21,AGUUACCACAAGGAGCUCCAGCACAGUGAAAUGGACAGAAGGGCAGAGCAA,1.07
22,AGUUACCACACGGAGCUCCAGCACAGUGAAAUGGACAGAAGGGCAGAGCAA,1.63
23,AGUUAUGAAUGGGAGCUCCAGCACAGUGAAAUGGACAGAAGGGCAGAGCAA,0.546
24,AGUUACCACCGGGCGCUCCAGCACAGUGAAAUGGACAGAAGGGCAGAGCAA,1.69
25,AGUUACCACCGGGUGCUCCAGCACAGUGAAAUGGACAGAAGGGCAGAGCAA,0.895
26,AGUUACCACCGGGGGCUCCAGCACAGUGAAAUGGACAGAAGGGCAGAGCAA,1.38

row,Variant,exon inclusion enrichment index
1,AGUUACCACCGGGCACUCCAGCACAGUGAAAUGGACAGAAGGGCAGAGCAA,0.731
2,AGUUACCACCGGGCUCUCCAGCACAGUGAAAUGGACAGAAGGGCAGAGCAA,1
3,AGUUACCACCGGGCCCUCCAGCACAGUGAAAUGGACAGAAGGGCAGAGCAA,0.761
4,AGUUACCACCGGGAGCUCCGCCACAGUGAAAUGGACAGAAGGGCAGAGCAA,2.62
5,AGUUACCACCGGGAGCUCCGUCACAGUGAAAUGGACAGAAGGGCAGAGCAA,2.6
6,AGUUACCACCGGGAGCUCCGACACAGUGAAAUGGACAGAAGGGCAGAGCAA,2.82
7,AGUUACCAUCGGGAGCUCCAGCACAGUGAAAUGGACAGAAGGGCAGAGCAA,2.24
8,AGUUACCAUAGGGAGCUCCAGCACAGUGAAAUGGACAGAAGGGCAGAGCAA,0.0302
9,AGUUACCAUGGGGAGCUCCAGCACAGUGAAAUGGACAGAAGGGCAGAGCAA,0.887
10,AGUUACCACCGGGUACUCCAGCACAGUGAAAUGGACAGAAGGGCAGAGCAA,0.514
11,AGUUACCACCGGGUCCUCCAGCACAGUGAAAUGGACAGAAGGGCAGAGCAA,1.01
12,AGUUACCACCGGGUUCUCCAGCACAGUGAAAUGGACAGAAGGGCAGAGCAA,0.953
13,AGUUACCACUGGGAGCUCCAGCACAGUGAAAUGGACAGAAGGGCAGAGCAA,1.09
14,AGUUACUUCCGGGAGCUCCAGCACAGUGAAAUGGACAGAAGGGCAGAGCAA,1.78
15,AGUUACCACCGGGAGCUCCAGCUAAGUGAAAUGGACAGAAGGGCAGAGCAA,1.02
16,AGUUACCACCGGGAGCUCCAGCUGAGUGAAAUGGACAGAAGGGCAGAGCAA,2.69
17,AGUUACCACCGGGAGCUCCAGCUUAGUGAAAUGGACAGAAGGGCAGAGCAA,0.272
18,AGUUACCACCGGGAGCUCCAGCACAGUGCGAUGGACAGAAGGGCAGAGCAA,3.21
19,AGUUACCACCGGGAGCUCCAGCACAGUGCCAUGGACAGAAGGGCAGAGCAA,2.73
20,AGUUAUCGCCGGGAGCUCCAGCACAGUGAAAUGGACAGAAGGGCAGAGCAA,3.3
21,AGUUACCACCGGGAGCUCCAGCCUAGUGAAAUGGACAGAAGGGCAGAGCAA,1.16
22,AGUUACCACCGGGAGCUCCAGCCAAGUGAAAUGGACAGAAGGGCAGAGCAA,2.48
23,AGUUACCACCGGGAGCUCCAGCCGAGUGAAAUGGACAGAAGGGCAGAGCAA,3.75
24,AGUUACCACCGGGAGCUCCAGCACUAUGAAAUGGACAGAAGGGCAGAGCAA,2.39
25,AGUUACCACCGGGAGCUCCAGCACUUUGAAAUGGACAGAAGGGCAGAGCAA,1.75
